This note sets out measurements from patent US11292821B2, “Peptides and combination of peptides for use in immunotherapy against lung cancer, including NSCLC, SCLC and other cancers” (Immatics Biotechnologies GmbH, priority 2017, dated 2022).

Assay [1] deals with CD8+ T cells. Put plainly: In vitro T-cell priming assay with aAPCs (in vitro immunogenicity for MHC class I presented peptides). It is filed as cell-based, human. To be noted: in vitro immunogenicity, HLA A*24.
The subject of assay [2] is HLA-A*24. The assay is described as follows: MHC binding assay (UV-ligand exchange, β2m ELISA). The arrangement: species or system human. A general note: ELISA stands for enzyme-linked immunosorbent assay.
In assay [3] the target is HLA-B*07 (Homo sapiens, UniProt P01889). The assay is described as follows: MHC binding assay (UV-ligand exchange, β2m ELISA). An excerpt:
Candidate peptides for T cell based therapies according to the present invention were further tested for their MHC binding capacity (affinity). The individual peptide-MHC complexes were produced by UV-ligand exchange, where a UV-sensitive peptide is cleaved upon UV-irradiation, and exchanged with the peptide of interest as analyzed. Only peptide candidates that can effectively bind and stabilize the peptide-receptive MHC molecules prevent dissociation of the MHC complexes. To determine the yield of the exchange reaction, an ELISA was performed based on the detection of the light chain (β2m) of stabilized MHC complexes. The assay was performed as generally described in Rodenko et al. (Rodenko et al., 2006).
96 well MAXISorp plates (NUNC) were coated over night with 2 ug/ml streptavidin in PBS at room temperature, washed 4× and blocked for 1 h at 37° C. in 2% BSA containing blocking buffer. […] Peptide-MHC monomers of the UV-exchange reaction were diluted 100-fold in blocking buffer. Samples were incubated for 1 h at 37° C., washed four times, incubated with 2 ug/ml HRP conjugated anti-β2m for 1h at 37° C., washed again and detected with TMB solution that is stopped with […]. Absorption was measured at 450 nm. Candidate peptides that show a high exchange yield (preferably higher than 50%, most preferred higher than 75%) are generally preferred for a generation and production of antibodies or fragments thereof, and/or T cell receptors or fragments thereof, as they show sufficient avidity to the MHC molecules and prevent dissociation of the MHC complexes.

Regarding “79 (RYLADLPTL; listed as Homo sapiens) [compound 79]”, in assay [1], the “Wells positive [%]” value was ““+” (<20% = +)”. The “Peptide exchange (peptide exchange yield, MHC class I binding score)” value (“Peptide exchange” below) in assay [2] is recorded as ““++++” (>75% = ++++)”. With “83 (TYCQNIKEF; listed as Homo sapiens) [compound 83]”, the “Wells positive [%]” value in assay [1] is ““+” (<20% = +)”. Besides, in assay [2], the “Peptide exchange” value is ““++++” (>75% = ++++)”. “227 (YPRGNHWAVGH; listed as Homo sapiens) [compound 227]”: in assay [3], the “Peptide exchange” value was ““++++” (>75% = ++++)”. Same read-out and setting: the entry for “229 (VPLPAGGGTV; listed as Homo sapiens) [compound 229]” is ““+++” (>50 = +++)”. In the case of “230 (VPLPAGGGTVL; listed as Homo sapiens) [compound 230]”, in assay [3], the “Peptide exchange” value is ““+++” (>50 = +++)”.

Take “234 (RAKNAGVTI; listed as Homo sapiens) [compound 234]”: the “Peptide exchange” value in assay [3] is listed as ““++++” (>75% = ++++)”. The same measure, in the same setting: with “235 (MPLKHYLLL; listed as Homo sapiens) [compound 235]” the entry was ““++++” (>75% = ++++)”; with “236 (RVRGGEDGDRAL; listed as Homo sapiens) [compound 236]”, ““++++” (>75% = ++++)”. On the same count and under the same terms, the entry for “238 (KPGPPWAAF; listed as Homo sapiens) [compound 238]” is ““++++” (>75% = ++++)”; for “239 (YVPSASLFML; listed as Homo sapiens) [compound 239]” it is ““++++” (>75% = ++++)”. The same measure, in the same setting: with “240 (SPREVTTVL; listed as Homo sapiens) [compound 240]” the entry was ““++++” (>75% = ++++)”; with “243 (RPIENRILIL; listed as Homo sapiens) [compound 243]”, ““++++” (>75% = ++++)”; with “246 (TPLPAVIVL; listed as Homo sapiens) [compound 246]”, ““++++” (>75% = ++++)”. In the case of “247 (RALLARLLL; listed as Homo sapiens) [compound 247]”, in assay [3], the “Peptide exchange” value is ““+++” (>50 = +++)”. The same measure, in the same setting: the entry for “251 (VPRSSGQTV; listed as Homo sapiens) [compound 251]” is ““++++” (>75% = ++++)”. Same read-out and setting: the entry for “253 (RVIDAVRFTL; listed as Homo sapiens) [compound 253]” is ““+++” (>50 = +++)”; for “254 (NPFPHLITL; listed as Homo sapiens) [compound 254]” it is ““++++” (>75% = ++++)”; for “255 (MPLLENLYL; listed as Homo sapiens) [compound 255]” it is ““++++” (>75% = ++++)”.

For the substance “256 (SPRVPSIEL; listed as Homo sapiens) [compound 256]”, in assay [3], the “Peptide exchange” value is recorded as ““++++” (>75% = ++++)”.

Turning to “257 (LPRIPFADV; listed as Homo sapiens) [compound 257]”, the “Peptide exchange” value in assay [3] is on record as ““++++” (>75% = ++++)”. As for “258 (LPRGPLASL; listed as Homo sapiens) [compound 258]”, the “Peptide exchange” value in assay [3] is recorded as ““++++” (>75% = ++++)”. “259 (RPPAAGLRGISL; listed as Homo sapiens) [compound 259]”: the “Peptide exchange” value in assay [3] is on record as ““++++” (>75% = ++++)”. Same read-out and setting: the entry for “260 (YPQHPGLNA; listed as Homo sapiens) [compound 260]” is ““+++” (>50 = +++)”.

With “261 (APSARVGVC; listed as Homo sapiens) [compound 261]”, the “Peptide exchange” value in assay [3] is listed as ““+++” (>50 = +++)”.

With “262 (SAYPQRLEI; listed as Homo sapiens) [compound 262]”, in assay [3], the “Peptide exchange” value was ““+” (>10% = +)”.

As to “263 (HPAPYGDLL; listed as Homo sapiens) [compound 263]”, the “Peptide exchange” value in assay [3] is on record as ““++++” (>75% = ++++)”. On to “265 (SPRQPPRLV; listed as Homo sapiens) [compound 265]”, for which the “Peptide exchange” value in assay [3] is ““++++” (>75% = ++++)”.

Turning to “267 (HPELVNHIVF; listed as Homo sapiens) [compound 267]”, the “Peptide exchange” value in assay [3] is reported as ““++” (>20% = ++)”. Still for that read-out and setting: with “268 (YPLFRGINL; listed as Homo sapiens) [compound 268]” the entry was ““++++” (>75% = ++++)”; with “269 (APRAPRLML; listed as Homo sapiens) [compound 269]”, ““++++” (>75% = ++++)”; with “270 (APGPRFLVT; listed as Homo sapiens) [compound 270]”, ““++++” (>75% = ++++)”.

“271 (MPLPWSLALP; listed as Homo sapiens) [compound 271]”: the “Peptide exchange” value in assay [3] is recorded as ““+++” (>50 = +++)”. The same measure, in the same setting: the entry for “272 (MPLPWSLALPL; listed as Homo sapiens) [compound 272]” is ““++++” (>75% = ++++)”; for “273 (MPLLWLRGF; listed as Homo sapiens) [compound 273]” it is ““++” (>20% = ++)”; for “275 (APHPPLSVV; listed as Homo sapiens) [compound 275]” it is ““+++” (>50 = +++)”. Same read-out and setting: the entry for “276 (LPRAGGAFL; listed as Homo sapiens) [compound 276]” is ““+++” (>50 = +++)”; for “278 (HPMIDINGIIVF; listed as Homo sapiens) [compound 278]” it is ““++” (>20% = ++)”. Turning to “279 (SPARASPAL; listed as Homo sapiens) [compound 279]”, the “Peptide exchange” value in assay [3] is listed as ““+++” (>50 = +++)”. On the same count and under the same terms, with “280 (VPISEEGTPVL; listed as Homo sapiens) [compound 280]” the entry was ““+++” (>50 = +++)”. For the substance “281 (RPRAPVTPA; listed as Homo sapiens) [compound 281]”, the “Peptide exchange” value in assay [3] was ““++++” (>75% = ++++)”. Consider “282 (MPQIETRVIL; listed as Homo sapiens) [compound 282]”, for which the “Peptide exchange” value in assay [3] is given as ““+++” (>50 = +++)”.

As to “283 (RPHSLSSEL; listed as Homo sapiens) [compound 283]”, the “Peptide exchange” value in assay [3] is on record as ““++++” (>75% = ++++)”. The same measure, in the same setting: the entry for “284 (FPVTSIFHTF; listed as Homo sapiens) [compound 284]” is ““++” (>20% = ++)”. As for “286 (VPTLRSEL; listed as Homo sapiens) [compound 286]”, the “Peptide exchange” value in assay [3] was ““++++” (>75% = ++++)”.

“287 (APREEQQRSL; listed as Homo sapiens) [compound 287]”: the “Peptide exchange” value in assay [3] is ““+++” (>50 = +++)”.

Consider “288 (FPQKFIDLL; listed as Homo sapiens) [compound 288]”, for which the “Peptide exchange” value in assay [3] is ““++” (>20% = ++)”. On the same count and under the same terms, with “289 (VPENHSVAL; listed as Homo sapiens) [compound 289]” the entry was ““++++” (>75% = ++++)”. For “375 (VYSDLHAFYY; listed as Homo sapiens) [compound 375]”, in assay [1], the “Wells positive [%]” value is ““+” (<20% = +)”. Besides, the “Peptide exchange” value in assay [2] was ““++++” (>75% = ++++)”. Take “379 (NYIVPDKQIF; listed as Homo sapiens) [compound 379]”: the “Wells positive [%]” value in assay [1] was ““+” (<20% = +)”. The “Peptide exchange” value in assay [2] was ““+++” (>50 = +++)”. For “380 (VFQEKHHVI; listed as Homo sapiens) [compound 380]” the same measures were ““+” (<20% = +)” and ““+++” (>50 = +++)”. For “383 (RYKQDVERF; listed as Homo sapiens) [compound 383]” the same measures were ““+++” (50%-69% = +++)” and ““+++” (>50 = +++)”.

“384 (KYVKVFDKF; listed as Homo sapiens) [compound 384]”: in assay [1], the “Wells positive [%]” value was ““+++” (50%-69% = +++)”. Moreover, the “Peptide exchange” value in assay [2] is recorded as ““++++” (>75% = ++++)”.

On to “386 (VYNDHSIYVW; listed as Homo sapiens) [compound 386]”, for which the “Wells positive [%]” value in assay [1] is recorded as ““++” (20%-49% = ++)”. Further, in assay [2], the “Peptide exchange” value is given as ““++++” (>75% = ++++)”.
